Experimental data reported in publication PMC6048717.

Molecular target: α-synuclein wild-type (UniProt P37840)
Assay: seeded fibril elongation kinetics

elongation rate constant k+ (monomer addition to AS(WT) seed fibril ends): 2780 M⁻¹ s⁻¹
Substance: α-synuclein C-terminally truncated variant AS(1-119) (from UniProt P37840 1-119) (domain or fragment)
